Results reported in paper PMC7560200 (The EMBO Journal, 2020).

Molecular target: GST-CENP-C (1-727) (human, UniProt Q03188 1-727)
Assay: pull-down

Sequence of GST-CENP-C (1-727) (Q03188 1-727): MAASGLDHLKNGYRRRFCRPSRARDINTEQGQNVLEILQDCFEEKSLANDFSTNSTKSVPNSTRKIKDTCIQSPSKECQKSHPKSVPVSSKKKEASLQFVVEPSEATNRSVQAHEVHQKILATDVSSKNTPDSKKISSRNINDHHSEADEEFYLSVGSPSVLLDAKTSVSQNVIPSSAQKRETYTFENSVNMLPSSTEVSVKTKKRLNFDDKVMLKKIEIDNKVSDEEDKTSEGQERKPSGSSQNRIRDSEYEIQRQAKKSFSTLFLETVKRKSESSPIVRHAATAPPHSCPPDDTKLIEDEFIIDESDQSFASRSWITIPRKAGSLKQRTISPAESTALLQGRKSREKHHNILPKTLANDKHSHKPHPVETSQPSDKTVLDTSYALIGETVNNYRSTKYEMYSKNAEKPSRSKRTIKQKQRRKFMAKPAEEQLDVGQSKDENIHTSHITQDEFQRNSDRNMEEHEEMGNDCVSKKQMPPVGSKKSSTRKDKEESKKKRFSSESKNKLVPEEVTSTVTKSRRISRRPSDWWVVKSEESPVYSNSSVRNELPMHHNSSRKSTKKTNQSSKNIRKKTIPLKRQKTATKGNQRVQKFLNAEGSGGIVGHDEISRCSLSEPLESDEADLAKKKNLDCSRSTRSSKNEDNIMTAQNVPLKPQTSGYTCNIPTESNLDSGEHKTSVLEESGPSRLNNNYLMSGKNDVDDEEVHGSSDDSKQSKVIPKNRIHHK

B1: His-CENP-B (161–599) (domain or fragment, human, UniProt P07199 161-599, looked up)
chain: PSEGSGGSTTGWRAREEQPPSVAEGYASQDVFSATETSLWYDFLPDQAAGLCGGDGRPRQATQRLSVLLCANADGSEKLPPLVAGKSAKPRAGQAGLPCDYTANSKGGVTTQALAKYLKALDTRMAAESRRVLLLAGRLAAQSLDTSGLRHVQLAFFPPGTVHPLERGVVQQVKGHYRQAMLLKAMAALEGQDPSGLQLGLTEALHFVAAAWQAVEPSDIAACFREAGFGGGPNATITTSLKSEGEEEEEEEEEEEEEEGEGEEEEEEGEEEEEEGGEGEELGEEEEVEEEGDVDSDEEEEEDEESSSEGLEAEDWAQGVVEAGGSFGAYGAQEEAQCPTLHFLEGGEDSDSDSEEEDDEEEDDEDEDDDDDEEDGDEVPVPSFGEAMAYFAMVKRYLTSFPIDDRVQSHILHLEHDLVHVTRKNHARQAGVRGLGHQS
binding result: binds
